# Target: the molecule itself
# Assay: not stated; purified water-soluble DHRS9 in solution; the method is shown only in Fig. S3
protein,measurement,value
"water-soluble form of mouse DHRS9 (dehydrogenase reductase 9) lacking the N-terminal transmembrane segment (enzyme, UniProt Q58NB6 17-319, looked up, mouse DHRS9 lacking the first 16 amino acids that form the transmembrane segment; residues 17 to 319; cDNA made by RT-PCR from mouse skin; Crystallised in complex with NADH; In the model, residues 21-319 (chain A) and 22-319 (chain B) are seen; the tag and residues 17-20/21 could not be located; also called soluble form of DHRS9; truncated DHRS9 protein; not shown: His10, N-terminal, kept) NYKGQLKIADIADKYVFITGCDTGFGNLAARTFDKKGFRVIAACLTESGSAALKAKTSERLHTVLLDVTDPENVKKTAQWVKSHVGEKGLWGLINNAGVLGVLAPTDWLTVDDYREPIEVNLFGLINVTLNMLPLVKKARGRVINVSSIGGRLAFGGGGYTPSKYAVEGFNDSLRRDMKAFGVHVSCIEPGLFKTELADPIKTTEKKLAIWKHLSPDIKQQYGEGYIEKSLHRLKSNTSSVNLDLSLVVGCMDHALTSLFPKTRYIAGKDAKTFWIPLSHMPAVLQDFLLLKQKVELANPKAV",stoichiometry N,2
